Consider two molecules from paper PMC9585082, “Structural insight into the ligand binding mechanism of aryl hydrocarbon receptor” (Nature Communications, 2022).

Holding throughout (settings): both partners purified
For test [1], the target named is T1, 6xHis-tagged dAHR PAS-B, Red-labeled (Drosophila melanogaster, UniProt O61543 264-381, labeled with the MO Red-Tris-NTA protein labeling kit).
T1 construct: Aryl hydrocarbon receptor homolog spineless (dAHR), Drosophila melanogaster, UniProt O61543, PAS-B domain aa 264-381; the only His-tagged dAHR PAS-B construct it describes is the 6xHis-SUMO fusion (pET-28s), so SUMO may also have been present; also called Red-labeled dAHR PAS-B; source: purified; E. coli Rosetta (DE3) is the host named for pET-28s-dAHR PAS-B
T1 sequence (looked up): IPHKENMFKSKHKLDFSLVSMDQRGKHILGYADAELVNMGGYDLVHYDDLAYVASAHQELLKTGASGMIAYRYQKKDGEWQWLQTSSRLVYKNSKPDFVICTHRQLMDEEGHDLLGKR
The experiment in a line: MST; 50 nM Red-labeled 6xHis-dAHR PAS-B; mARNT PAS-B 100 µM to 3 nM; PBS, 0.05% Tween-20, 2.5% DMSO, 0.5 mM TCEP; without αNF.

For test [2], the target named is T1, 6xHis-tagged dAHR PAS-B, Red-labeled. The experiment in a line: MST; 50 nM Red-labeled 6xHis-dAHR PAS-B; mARNT PAS-B 100 µM to 3 nM; PBS, 0.05% Tween-20, 2.5% DMSO, 0.5 mM TCEP; with 1 µM αNF.
In test [3] the target is T2, 6xHis-SUMO-tagged dAHR PAS-B (wild type) (Drosophila melanogaster, UniProt O61543 264-381).
T2 construct: Aryl hydrocarbon receptor homolog spineless (dAHR), Drosophila melanogaster, UniProt O61543, PAS-B domain aa 264-381; The printed name '6xHis-SUMO-dAHR PAS-B' puts the tag first; the end is not otherwise stated; also called 6xHis-SUMO-dAHR PAS-B; WT protein; source: E. coli Rosetta (DE3), purified; fusion tag retained
T2 sequence (looked up): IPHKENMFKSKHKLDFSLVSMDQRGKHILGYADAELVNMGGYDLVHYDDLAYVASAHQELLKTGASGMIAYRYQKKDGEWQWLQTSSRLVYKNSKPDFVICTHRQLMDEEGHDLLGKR
The experiment in a line: ELISA; 100 nM 6xHis-SUMO-dAHR PAS-B (WT or mutants) coated on plates; GST-mARNT PAS-B 0.004-10 µM added, 1 h room temperature; anti-GST detection; four-parameter 'log(agonist) vs response' fit. (In general: An ELISA detects its analyte on a solid surface through an enzyme-linked reagent.)

Test [4] deals with T3, 6xHis-SUMO-tagged dAHR PAS-B Y305A (Drosophila melanogaster, UniProt O61543 264-381, Y305A).
T3 construct: Aryl hydrocarbon receptor homolog spineless (dAHR), Drosophila melanogaster, UniProt O61543, PAS-B domain aa 264-381; source: E. coli Rosetta (DE3), purified as the WT protein; fusion tag retained
T3 sequence (looked up): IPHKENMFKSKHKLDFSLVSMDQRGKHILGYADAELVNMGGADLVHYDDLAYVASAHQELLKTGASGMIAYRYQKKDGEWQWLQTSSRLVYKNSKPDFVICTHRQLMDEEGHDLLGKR
Described as above.

Test [5] has as its target T4, 6xHis-SUMO-tagged dAHR PAS-B Y310A (Drosophila melanogaster, UniProt O61543 264-381, Y310A).
T4 construct: Aryl hydrocarbon receptor homolog spineless (dAHR), Drosophila melanogaster, UniProt O61543, PAS-B domain aa 264-381; source: E. coli Rosetta (DE3), purified as the WT protein; fusion tag retained
T4 sequence (looked up): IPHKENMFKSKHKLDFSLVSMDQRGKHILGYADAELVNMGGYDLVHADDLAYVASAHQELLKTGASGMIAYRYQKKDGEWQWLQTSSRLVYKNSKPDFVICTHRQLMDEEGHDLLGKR
The test is described as above.

B1: mouse ARNT PAS-B domain (aa 360-465), fusion tag removed (domain or fragment)
chain: not shown
notes: Aryl hydrocarbon receptor nuclear translocator (ARNT), mouse, PAS-B domain aa 360-465; Subcloned into pET-28s 'similarly' to the AHR PAS-B domains; tag removed with ULP1; also called mARNT PAS-B
For orientation: Kd means the constant that tells how readily two partners part at equilibrium. With B1, the Kd in test [1] is 300 nM; in test [2], around 250 nM.

B2: GST-tagged mARNT PAS-B (domain or fragment)
chain: not shown
notes: Aryl hydrocarbon receptor nuclear translocator (ARNT), mouse, PAS-B domain aa 360-465; GST retained for ELISA; also called GST-fused recombinant mARNT PAS-B; source: pGEX-6P-1 construct, purified
As for B2, the Kd was around 380 nM in test [3], 1800 nM in test [4] and 500 nM in test [5].
